Test results reported in US11207404B2, “Compositions and uses” (priority 2015, dated 2021).

How the values were obtained:
[1] = Visual assessment of adverse effect on injection site in pigs; assay type: in vivo; details: extra dose of 150 μg of Compound A alone; 2 pigs
Method: A brief adverse effect visual assessment on injection site was performed on 2 random chosen pigs by testing an extra dose of 150 μg of Compound A alone.

[2] = Antigen fragment solubility/stability (Table 1); assay type: physicochemical
Excerpt: Antigen (abbreviated as “Ag” herein) fragments employed in the present invention typically have certain properties useful in conjugation. In one aspect, the antigen fragments are proteins that are stable in solution and not prone to any substantial aggregation. In another aspect the antigen fragment contains a minimum of three available amines at which conjugation can occur and have a size of less than 500 kD.
Such fragments are readily commercially available and/or can be readily made by those skilled in the ar.

Compound | visual adverse effect of the injected site [1] | Solubility [2] [mg/mL] | Stability [2]
CCCCOc1nc(N)c2[nH]c(=O)n(CC3CCNCC3)c2n1 [Compound A] | No visual adverse effect of the injected site was observed |  | 
Tetanus Toxoid |  | 30 | years
